Results as given in patent US20190100600A1 (BIONOMICS, published 2019).
Blank lines part the entries; values can stand above or below the binder they belong to.

Tests used:
[1] = target: T1, purified recombinant LGR5 ectodomain-IgG-Fc fusion (human, UniProt O75473 22-561); assay: ELISA of the ternary complex: R-spondin 4 preincubated with LGR5-Fc, co-receptor-Fc coated
T1 construct: also called human LGR5-Fc; hLGR5-Fc; not shown: IgG Fc
T1 sequence: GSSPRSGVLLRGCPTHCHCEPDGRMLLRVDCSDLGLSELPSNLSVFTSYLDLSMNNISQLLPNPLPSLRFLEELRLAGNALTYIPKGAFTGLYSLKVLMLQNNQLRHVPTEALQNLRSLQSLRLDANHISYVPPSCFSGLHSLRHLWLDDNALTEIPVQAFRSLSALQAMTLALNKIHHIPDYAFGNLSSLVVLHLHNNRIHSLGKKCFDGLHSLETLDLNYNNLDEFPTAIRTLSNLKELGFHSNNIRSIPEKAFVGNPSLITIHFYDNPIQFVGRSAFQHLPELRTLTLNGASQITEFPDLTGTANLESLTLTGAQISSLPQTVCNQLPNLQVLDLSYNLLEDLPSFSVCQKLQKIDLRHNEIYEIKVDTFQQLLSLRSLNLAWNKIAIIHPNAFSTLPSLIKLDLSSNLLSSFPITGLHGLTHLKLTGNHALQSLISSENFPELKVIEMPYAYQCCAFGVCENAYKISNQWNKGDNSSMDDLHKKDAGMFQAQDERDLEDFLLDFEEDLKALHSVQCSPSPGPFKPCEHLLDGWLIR

[2] = target: T1, purified recombinant LGR5 …; assay: ELISA of the ternary complex: R-spondin 1 preincubated with LGR5-Fc, co-receptor-Fc coated
Experimental: (§1) RNF43-Fc, ZNRF3-Fc, and LRP6-Fc were coated on a 96-well high binding plate at 4 μg/mL in 1×PBS. The plate was incubated overnight at 4° C. and blocked with PBS+1% BSA. […] Triplicate wells were used for each condition was tested in triplicate. […] 1:10,000 dilution of anti-mouse IgG HRP (JIR) was used for detection. […] Data analysis was done using GraphPad Prism 6 program.

[3] = target: T1, purified recombinant LGR5 …; assay: ELISA of the ternary complex: R-spondin 3 preincubated with LGR5-Fc, co-receptor-Fc coated
Experimental: as §1

[4] = target: T1, purified recombinant LGR5 …; assay: ELISA of the ternary complex: R-spondin 2 preincubated with LGR5-Fc, co-receptor-Fc coated
Experimental: as §1

- binding result [1]: binds
B1: human R-spondin 4 (ligand, UniProt Q2I0M5 20-234, looked up)
chain: LNRRKKQVGTGLGGNCTGCIICSEENGCSTCQQRLFLFIRREGIRQYGKCLHDCPPGYFGIRGQEVNRCKKCGATCESCFSQDFCIRCKRQFYLYKGKCLPTCPPGTLAHQNTRECQGECELGPWGGWSPCTHNGKTCGSAWGLESRVREAGRAGHEEAATCQVLSESRKCPIQRPCPGERSPGQKKGRKDRRPRKDRKLDRRLDVRPRQPGLQP
notes: mature; Bought; printed as 'full length constructs expressed in mammalian cells'; also called RSPO4; R-spo4

- binding result [2]: binds
B2: human R-spondin 1 (ligand, UniProt Q2MKA7 21-263, looked up)
chain: SRGIKGKRQRRISAEGSQACAKGCELCSEVNGCLKCSPKLFILLERNDIRQVGVCLPSCPPGYFDARNPDMNKCIKCKIEHCEACFSHNFCTKCKEGLYLHKGRCYPACPEGSSAANGTMECSSPAQCEMSEWSPWGPCSKKQQLCGFRRGSEERTRRVLHAPVGDHAACSDTKETRRCTVRRVPCPEGQKRRKGGQGRRENANRNLARKESKEAGAGSRRRKGQQQQQQQGTVGPLTSAGPA
notes: mature; Bought; printed as 'full length constructs expressed in mammalian cells'; also called RSPO1; R-spo1

- binding result [3]: binds
B3: human R-spondin 3 (ligand, UniProt Q9BXY4 22-272, looked up)
chain: QNASRGRRQRRMHPNVSQGCQGGCATCSDYNGCLSCKPRLFFALERIGMKQIGVCLSSCPSGYYGTRYPDINKCTKCKADCDTCFNKNFCTKCKSGFYLHLGKCLDNCPEGLEANNHTMECVSIVHCEVSEWNPWSPCTKKGKTCGFKRGTETRVREIIQHPSAKGNLCPPTNETRKCTVQRKKCQKGERGKKGRERKRKKPNKGESKEAIPDSKSLESSKEIPEQRENKQQQKKRKVQDKQKSVSVSTVH
notes: mature; Bought; printed as 'full length constructs expressed in mammalian cells'; also called RSPO3; R-spo3

- binding result [4]: binds
B4: human R-spondin 2 (ligand, UniProt Q6UXX9 22-243, looked up)
chain: QGNRWRRSKRASYVSNPICKGCLSCSKDNGCSRCQQKLFFFLRREGMRQYGECLHSCPSGYYGHRAPDMNRCARCRIENCDSCFSKDFCTKCKVGFYLHRGRCFDECPDGFAPLEETMECVEGCEVGHWSEWGTCSRNNRTCGFKWGLETRTRQIVKKPVKDTILCPTIAESRRCKMTMRHCPGGKRTPKAKEKRNKKKKRKLIERAQEQHSVFLATDRANQ
notes: mature; Bought; printed as 'full length constructs expressed in mammalian cells'; also called RSPO2; R-spo2
